According to patent US20240254204A1:
Positions count from the first letter of the chain named.

B1: Antibody 18 (SS6V18-E3) (antibody, V domains shown)
VH: EVQLVESGGGLVQPGGSLRLSCAASGFTFSSYAMHWVRQVPGKGLEYVSSITSNGGGTFYADSVKGRFTISRDNSKNTVYLQMGSLSTEDMALYYCAREGIQGWVTYFDYWGRGILVTVSS
VL: DIQMTQSPSSLSASIGDRVTITCRASQSISTNLNWYQQKPGKAPKLLIYAASSLPSGVPSRFSGSGSGTDFTLTISSLQPEDFANYLCQQTYTTPQYSFGQGTKVEIK
B2: Antibody 12 (SS6V12-E11) (antibody, V domains shown)
VH: EVQLVESGGGLVKPGGSLRLSCAASGFTFSTYNMNWVRQAPGKGLEWVSSISSSSSFMFYADSVKGRFTISRDNANNSLYLQMNSLRAEDTAVYYCARDYYDNSGYYYYGMDVWGQGTTVTVSS
VL: DIQMTQSPSSLSASVGDRVTITCRASQSIRTYLSWYQQKPGKAPELLIYAASNLQSGVPSRFSGSGSGTDFTLTISSLQPEDFATYYCLQTYSTPQITFGQGTRLEIE
B3: Antibody 14 (SS6V14-F2) (antibody, V domains shown)
VH: QVQLQESGPGLVKPSETLSLTCTVSGGPISSYYWTWIRQPPGKGLEWIGYIYYSGSTNYSPSLKSRVTMSLETSKNQFSLKLTSVTAADTAVYYCARDPLAEGAASSGFDNWGQGTLVTVSS
VL: DIQMTQSPSSLSASVGDRVTITCRASQSISSYLNWYQQKPGKAPKLLIYAASALQSGVPSRFSGSGSGTHFSLTINGLQPEDFATYSCQQSYTTPRTFGPGTKVEIK
B4: Antibody 19 (SS6V19-F4) (antibody, V domains shown)
VH: EVQLVQSGSELKKPGASVKVSCKVSGYTFTDYNMNWVRQAPGQGLEWMGWINTNTGIPTYAQGFTGRFVFSLDTSVSTAYLQISSLKAEDTAIYYCARDGGWQLPYWYFDLWGRGTLVTVSS
VL: EIVMTQSPATLSVSPGERVTLSCRASYSFSSSLAWYQQKPGQAPRLLIYGTSTRATGVPVRFSGSGSGTEFTLTISSLQSEDLAVYYCQQYYSWPLTFGQGTKVDIK
B5: Antibody 15 (SS6V15-F6) (antibody, V domains shown)
VH: EVQLVESGGGVVQPGRSLRLSCAASGFTFSSYAIHWVRQAPGKALEWVALISYDGRTKYYADSVKGRFTISRDNSKNTLYLQMNSLRAEDTAVYYCARLDIIITPPANDYWGQGTLVTVSS
VL: EIVLTQSPGTLSLSPGDRATVSCRASQIVSSNYLAWYQQKPGQVPRLLIYDASSRATGIPDRFSGSGSGTDFTLTISRLEPEDFAVYYCHQYGDSRRTFGQGTKVDIK
B6: Antibody 2 (SS6V2-G1) (antibody, V domains shown)
VH: EVQLVESGGGLVQPGGSLRLSCAASGFTVSSNYMSWVRQAPGKGLEWVSVIYSGGSTFYADSVKGRFTISRDNSKNTLYLQMNSLRAEDTAVYYCARELRHYFDYWGQGTLVTVSS
VL: DIQLTQSPSFLSASVGDRVTITCRASQGISSYLAWYQQKPGKAPKLLIYAASTLQSGVPSRFSGSGSGTEFTLTISSLQPEDFATYYCQQLNSYPPYSFGQGTKVEIK
B7: Antibody 1 (SS6V1-B5) (antibody, V domains shown)
VH: EVQLVESGGGLVQPGGSLRLSCAASGFILRNYEMQWVRQAPGKGLEWVSVIGNTGGTFYAGSVKGRFTISRENAKNSLYLQMNSLRAEDTALYYCARVTYTSSPLPFWFLDLWGRGTLVTVSS
VL: DIQMTQSPSSLSASVGDRVTITCRASQSIGNYLNWYQQKSGKAPKILIYAASSLQSGVPSRFSGSGSGTDFTLTISSLQPEDFATYYCQQTYRTPPEDSFGQGTKVEIK
B8: Antibody 5 (SS6V5-C3) (antibody, V domains shown)
VH: EVQLVQSGAEVRKPGESLKISCKTSGYTFTHYWIGWVRQLPGKGLEWMGIIYPDDSDTKYSPSFQGQITISADKSISTAYLQWNSLKASDTAMYFCATADIVVGSNFFDHWGQGTLVTVSS
VL: DIQMTQSPSTLSASVGDRVTITCRASQSISTWLAWYQQKPGKPPKVLIYKASILESGVSSRFSGSGSGTEFTLTISSLQPDDFATYYCQHYNSYIKTFGQGTKVEIK
B9: Antibody 6 (SS6V6-C4) (antibody, V domains shown)
VH: EVQLVESGGGLVQPGGSLRLSCSASGFTFNTYAMHWVRQAPGKGPEYVSGISSNGGITDYADSVKGRFTISRDNSKNTLYLQMSSLRPEDTAVYYCVKDSLATVVTLLSYWGQGTLVTVSS
VL: DIQMTQSPSSLSASVGDRVTITCRASQTISSYLNWFQQKPGKAPKLLIYAASSLQSGVPSRFSGSGSGTDFTLTISSLQPEDFAIYYCQQSYSTPGTFGQGTKVEIK
B10: Antibody 7 (SS6V7-C5) (antibody, V domains shown)
VH: EVQLVQSGAEVKKPGESLKISCKGSENIFSGYWIGWVRQMPGKGLEWMGIIYPDDSDTRYNPSFQGQVTISADQSISTAYLQWSRLKASDTAMYYCARHLGGGSSWPIDYWGQGTLVTVSS
VL: DIQMTQSPSSLSASVGDRVTITCRANQGISNYLAWFQQKPGKAPKSLIYAASSLQSGVPSKFSGNRSGTDFTLTISSLQPEDFATYYCQQYSSYPFTFGGGTKVEIK
B11: Antibody 8 (SS6V8-D3) (antibody, V domains shown)
VH: EVQLVESGGDLVQPGGSLRLSCSASGFTFSTYAMHWVRQAPGKGLDYVASIASDGGITTYADSVKGRFTISRDNSKNALYLQMSSLRVEDTAVYYCVKDSLTSVTTIFDCWGQGTLVTVSS
VL: DIQMTQSPSSLSASVGDSVTITCRASQNINSYLHWYQQKPGKAPKLLIYTASSLQSGVPSRFSASGSGTHFTLTISSLQPEDFATYYCQQSYTDPYTFGQGSKVEIK
B12: Antibody 9 (SS6V9-D11) (antibody, V domains shown)
VH: QVQLQESGPGLVKPSGTLSLTCAVSGGSISSNIWWSWVRQPPGKGLEWIGDIYHSGSTNYNPSLEGRVTISIDKSKNQFSLRLTSLTAADTAVYYCARAISQQYFDSSVLGYWGQGILVTVSS
VL: EIVMTQSPATLSVSPGERVTLSCRASQSVVTNLAWYQQKPGQAPRLLIYGASTRATGIPARFSGSGSGTEFTLTISSLQSEDFAIYHCQQYNNWPGYTFGQGTKVDIK
B13: Antibody 10 (SS6V10-E1) (antibody, V domains shown)
VH: EVQLVQSGAEVKKPGESLKISCQGSEDSFTGYWIGWVRQLPGKGLEWMGFIYPDDGDTRYSPAFQGLVTFSADKSITTAYLQWSSLKASDTAIYFCARHLGGGSSWPIDSWGQGTQVTVSS
VL: B10 VL with N26S, S30R, N65S, R66G, S67Y, S76N, S92N, S93N, Y94H

How the values were obtained:
[1] = molecular target: SARS-CoV-1 RBD (SARS-CoV); assay: ELISA, 100 ng coated RBD, neat supernatant, anti-human IgG-HRP
[2] = molecular target: SARS-CoV-2 RBD (SARS-CoV-2); assay: as above
[3] = molecular target: SARS-CoV-2 RBD (SARS-CoV-2); assay: sVNT, cPass kit with SARS-CoV-2 RBD-HRP; HEK293 supernatant
[4] = molecular target: SARS-CoV-1 RBD (SARS-CoV); assay: sVNT, cPass kit format with SARS-CoV-1 RBD-HRP; HEK293 supernatant

Binder	Binding SARS-CoV-1 [1]	Binding SARS-CoV-2 [2]	sVNT SARS-CoV-2 (% I) [3] [%]	sVNT SARS-CoV-1 (% I) [4] [%]
B1	1.33	1.11	15.5	43.7
B2	1.21	1.45	45	50.4
B3	1.06	1.54	33.4	18.1
B4	1.15	0.641	38.8	61.2
B5	0.831	0.674	15.7	17.5
B6	0.008	0.947	20.2	1.35
B7	1.35	1.73	46.3	52.1
B8	1.16	1.68	32.3	11.7
B9	1.29	1.92	31.7	30.5
B10	0.972	1.16	14.9	20.8
B11	1.42	1.94	33.1	36.1
B12	1.29	1.81	39.2	45.2
B13	1.1	1.31	22.7	15.4
